{"source": "patent US20090074766A1", "about": "“Methods of inhibiting HIV-2 infection” (priority 2007, published 2009)", "test_system": "R5 HIV-1 CC 1/85", "assay": "Inhibition of replication in PBMC cultures, RT activity readout: HIV-1 CC 1/85", "format": "cell-based", "procedure": "Viruses: All virus isolates were grown and titered exclusively in stimulated PBMC as described previously. […] The HIV-2 isolates used in this study have been previously described (Owen, S. M., Ellenberger, D., Rayfield, M., Wiktor, S., Michel, P., Grieco, M. H., Gao, F., Hahn, B. H., and Lai, R. B. 1998. Genetically Divergent Strains of Human Immunodeficiency Virus Type 2 Use Multiple Coreceptors for Entry. J Virol 72:5425-5432) and were obtained from the NIH AIDS Research and Reference Reagent Program.\nPA14 (Lot # DF-021204) was produced for reagent use in the Research & Development laboratories of Progenics Pharmaceuticals Inc.\nInhibition of HIV-1 and HIV-2 replication in PBMC cultures: PBMC were isolated from 34 healthy blood donors with Ficoll-Hypaque (all media from Cellgro, Herndon, Va.) and depleted of CD8+ cells using RosetteSep CD8 depletion cocktail (StemCell Technologies) according to the manufacturer's instructions. Equal numbers of cells from each donor were then separately stimulated with 5 ug phytohemagglutinin/ml (Sigma, St. Louis, Mo.) or with surface-immobilized anti-CD3 antibody OKT3 in RPMI 1640 medium containing 10% fetal calf serum, 100 Units of interleukin-2/ml (NIH AIDS Research and Reference Reagent Program), glutamine, and antibiotics (PBMC culture medium) as previously described. After 72 hours, equal numbers of PBMC stimulated by one of these two methods from each donor were combined for use in infection assays as follows. […] The virus inoculum was adjusted to 400 to 2,000 times the TCID50 per ml in PBMC culture medium, and a 50-ul aliquot was added to each culture. The inhibitory doses refer to the concentrations of the agents present at this point in the culture, when virus, cells, and inhibitors were all present at their final concentrations. Reverse Transcriptase (RT) activity was measured on Day 7 post infection (pi) for HIV-1 and Day 10 pi for HIV-2 by the Reverse Transcriptase Assay, Colorimetric kit, #11 468 120 910, Roche (Switzerland) according to the manufacturer's instructions with the following exception: neither ultracentrifugation nor PEG precipitation of the culture supernatants was performed before viral lysis.\nThe inhibition data were analyzed using GraphPad Prism software (GraphPad Software, San Diego, Calif.). A 4-parameter logistic fit was used calculate the concentration of inhibitor that afforded a 50% and a 90% reduction in RT activity. […] The % inhibitions where best-fit curve reached a top plateau, also as calculated by GraphPad Prism software, are reported as well as maximum percent inhibition (MPI). […] Inhibition curves with a poor sigmoid fit (R^2<0.7) were excluded from data analysis.", "key": {"[1]": {"details": "CC 1/85, current study n = 5, mean"}}, "note": "“And” between values parts separate entries of the source, which are not always exact repeats. Equal values may be shown once."}
{"molecule": "PRO 140: humanized IgG4,κ anti-CCR5 monoclonal antibody, humanized version of murine mAb PA14 (antibody, chains of the INN, looked up, V domains shown) VH: EVQLVESGGGLVKPGGSLRLSCAASGYTFSNYWIGWVRQAPGKGLEWIGDIYPGGNYIRNNEKFKDKTTLSADTSKNTAYLQMNSLKTEDTAVYYCGSSFGSNYVFAWFTYWGQGTLVTVSS VL: DIVMTQSPLSLPVTPGEPASISCRSSQRLLSSYGHTYLHWYLQKPGQSPQLLIYEVSNRFSGVPDRFSGSGSGTDFTLKISRVEAEDVGVYYCSQSTHVPLTFGQGTKVEIK", "values": [{"measurement": "EC50 (mean)", "setting": "[1]", "result": "<7.7", "unit": "µg/mL"}, {"measurement": "EC90 (mean)", "setting": "[1]", "result": 23, "unit": "µg/mL"}, {"measurement": "EC90 (median)", "setting": "HIV-1 CC 1/85, R5, median, current study n = 5", "result": 6.0, "unit": "µg/mL"}, {"measurement": "MPI (maximum percent inhibition)", "setting": "R5 HIV-1 CC 1/85, individual assays (Source)", "result": "94% and 93% and 102% and 95%"}, {"measurement": "MPI, Median", "setting": "R5 HIV-1 CC 1/85, median of assays", "result": 95, "unit": "%"}]}
